Source: patent US20160136234A1

Tests used:
Assay in all cases: cell-based or functional assay
[1] = molecular target: PKCβI (h) (human) (UniProt P05771)
[2] = molecular target: T1, NLK (h) (human) (UniProt Q9UBE8)
T1 sequence (looked up): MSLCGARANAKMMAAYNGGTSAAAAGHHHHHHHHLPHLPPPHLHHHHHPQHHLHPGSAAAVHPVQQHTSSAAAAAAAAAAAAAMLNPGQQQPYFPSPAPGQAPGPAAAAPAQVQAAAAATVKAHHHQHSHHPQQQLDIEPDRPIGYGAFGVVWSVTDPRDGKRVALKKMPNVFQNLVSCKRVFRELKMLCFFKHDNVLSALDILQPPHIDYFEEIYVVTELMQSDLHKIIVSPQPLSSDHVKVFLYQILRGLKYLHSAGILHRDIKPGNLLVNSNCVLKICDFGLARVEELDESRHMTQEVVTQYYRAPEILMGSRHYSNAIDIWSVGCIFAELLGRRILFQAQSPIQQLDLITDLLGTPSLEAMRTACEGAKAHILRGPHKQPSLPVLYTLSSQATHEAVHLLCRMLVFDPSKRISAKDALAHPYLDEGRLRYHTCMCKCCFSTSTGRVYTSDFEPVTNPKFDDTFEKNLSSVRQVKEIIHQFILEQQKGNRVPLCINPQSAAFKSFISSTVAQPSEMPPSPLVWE

[3] = molecular target: CDK7/cyclinH/MAT1 (h) (human) (UniProt P50613)
CDK7/cyclinH/MAT1 (h) (human), sequence (P50613 whole entry, chain 1 of 3): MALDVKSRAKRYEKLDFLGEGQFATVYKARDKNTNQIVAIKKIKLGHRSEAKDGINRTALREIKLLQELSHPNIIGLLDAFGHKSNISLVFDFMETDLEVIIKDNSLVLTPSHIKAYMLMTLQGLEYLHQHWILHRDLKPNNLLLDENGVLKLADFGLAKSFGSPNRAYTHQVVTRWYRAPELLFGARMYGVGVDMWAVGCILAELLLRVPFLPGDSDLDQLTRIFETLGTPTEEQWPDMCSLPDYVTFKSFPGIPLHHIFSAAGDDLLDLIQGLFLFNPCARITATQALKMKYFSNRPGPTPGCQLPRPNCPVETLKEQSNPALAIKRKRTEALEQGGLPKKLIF
CDK7/cyclinH/MAT1 (h) (human), sequence (P51946 whole entry, chain 2 of 3, further chain): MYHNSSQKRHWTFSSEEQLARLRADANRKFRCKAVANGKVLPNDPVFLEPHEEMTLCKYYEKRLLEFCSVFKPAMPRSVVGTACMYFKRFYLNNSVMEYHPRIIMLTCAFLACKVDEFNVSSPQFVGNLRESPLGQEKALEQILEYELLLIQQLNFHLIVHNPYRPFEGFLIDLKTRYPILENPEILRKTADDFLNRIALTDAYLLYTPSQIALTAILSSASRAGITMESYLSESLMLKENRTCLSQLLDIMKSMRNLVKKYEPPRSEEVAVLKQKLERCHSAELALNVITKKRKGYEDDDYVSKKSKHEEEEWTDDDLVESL
CDK7/cyclinH/MAT1 (h) (human), sequence (P51948 whole entry, chain 3 of 3, further chain): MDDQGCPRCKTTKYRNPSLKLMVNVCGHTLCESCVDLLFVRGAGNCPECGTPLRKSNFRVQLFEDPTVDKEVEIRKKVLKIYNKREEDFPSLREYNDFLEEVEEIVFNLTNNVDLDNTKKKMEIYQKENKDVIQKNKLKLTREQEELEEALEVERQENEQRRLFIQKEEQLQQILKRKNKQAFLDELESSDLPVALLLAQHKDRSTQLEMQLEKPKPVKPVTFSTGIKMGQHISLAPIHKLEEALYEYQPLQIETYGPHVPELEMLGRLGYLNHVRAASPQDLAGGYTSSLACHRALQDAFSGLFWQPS

[4] = molecular target: T2, Txk (h) (human) (UniProt P42681)
T2 sequence (looked up): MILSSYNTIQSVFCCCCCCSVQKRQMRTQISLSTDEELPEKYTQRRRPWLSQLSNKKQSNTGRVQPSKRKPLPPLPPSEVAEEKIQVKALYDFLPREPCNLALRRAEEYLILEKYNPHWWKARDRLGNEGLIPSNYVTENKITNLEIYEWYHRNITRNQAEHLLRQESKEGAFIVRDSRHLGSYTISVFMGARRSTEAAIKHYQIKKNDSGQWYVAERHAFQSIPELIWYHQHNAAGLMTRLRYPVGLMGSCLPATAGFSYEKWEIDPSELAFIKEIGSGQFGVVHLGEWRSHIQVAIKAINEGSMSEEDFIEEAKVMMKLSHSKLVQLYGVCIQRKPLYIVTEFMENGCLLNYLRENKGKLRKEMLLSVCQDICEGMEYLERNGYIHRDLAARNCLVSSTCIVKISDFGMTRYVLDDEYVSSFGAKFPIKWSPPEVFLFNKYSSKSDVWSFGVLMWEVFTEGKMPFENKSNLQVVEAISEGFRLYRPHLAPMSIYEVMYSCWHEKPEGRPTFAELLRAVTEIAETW

[5] = molecular target: T3, ULK2 (h) (human) (UniProt Q8IYT8)
T3 sequence (looked up): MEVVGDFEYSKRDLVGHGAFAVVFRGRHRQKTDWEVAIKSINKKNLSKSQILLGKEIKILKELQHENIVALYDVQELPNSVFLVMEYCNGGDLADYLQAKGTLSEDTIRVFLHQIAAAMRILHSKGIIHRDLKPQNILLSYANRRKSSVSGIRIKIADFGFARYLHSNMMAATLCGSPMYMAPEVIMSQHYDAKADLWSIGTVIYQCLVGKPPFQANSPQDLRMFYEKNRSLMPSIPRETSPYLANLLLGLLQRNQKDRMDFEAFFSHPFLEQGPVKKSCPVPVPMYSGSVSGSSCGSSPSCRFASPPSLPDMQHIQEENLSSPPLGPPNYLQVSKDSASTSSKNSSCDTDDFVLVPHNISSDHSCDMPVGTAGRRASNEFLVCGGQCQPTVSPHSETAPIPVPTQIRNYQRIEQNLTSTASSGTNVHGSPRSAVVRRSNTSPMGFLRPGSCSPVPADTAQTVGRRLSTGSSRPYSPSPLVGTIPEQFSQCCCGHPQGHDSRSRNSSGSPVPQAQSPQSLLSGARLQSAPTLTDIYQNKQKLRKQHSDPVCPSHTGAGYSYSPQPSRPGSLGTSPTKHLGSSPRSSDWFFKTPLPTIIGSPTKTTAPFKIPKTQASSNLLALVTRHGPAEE

[6] = molecular target: T4, Ret (V804L) (h) (human) (UniProt P07949)
T4 sequence (looked up): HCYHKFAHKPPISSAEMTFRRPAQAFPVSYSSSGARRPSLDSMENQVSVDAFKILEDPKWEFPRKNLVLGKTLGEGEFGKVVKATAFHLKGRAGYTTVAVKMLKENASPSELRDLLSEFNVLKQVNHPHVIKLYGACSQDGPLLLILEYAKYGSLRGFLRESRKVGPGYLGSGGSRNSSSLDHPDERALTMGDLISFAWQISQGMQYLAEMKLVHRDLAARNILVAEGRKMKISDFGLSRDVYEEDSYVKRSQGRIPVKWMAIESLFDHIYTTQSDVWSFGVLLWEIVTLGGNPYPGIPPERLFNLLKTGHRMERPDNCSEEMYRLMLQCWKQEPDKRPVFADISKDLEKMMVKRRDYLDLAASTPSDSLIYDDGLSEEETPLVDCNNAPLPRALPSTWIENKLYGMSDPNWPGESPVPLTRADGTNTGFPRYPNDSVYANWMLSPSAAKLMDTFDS

[7] = molecular target: PKCγ (h) (human) (UniProt P05129)
[8] = molecular target: T5, PDK1 (h) (human) (UniProt O15530)
T5 sequence (looked up): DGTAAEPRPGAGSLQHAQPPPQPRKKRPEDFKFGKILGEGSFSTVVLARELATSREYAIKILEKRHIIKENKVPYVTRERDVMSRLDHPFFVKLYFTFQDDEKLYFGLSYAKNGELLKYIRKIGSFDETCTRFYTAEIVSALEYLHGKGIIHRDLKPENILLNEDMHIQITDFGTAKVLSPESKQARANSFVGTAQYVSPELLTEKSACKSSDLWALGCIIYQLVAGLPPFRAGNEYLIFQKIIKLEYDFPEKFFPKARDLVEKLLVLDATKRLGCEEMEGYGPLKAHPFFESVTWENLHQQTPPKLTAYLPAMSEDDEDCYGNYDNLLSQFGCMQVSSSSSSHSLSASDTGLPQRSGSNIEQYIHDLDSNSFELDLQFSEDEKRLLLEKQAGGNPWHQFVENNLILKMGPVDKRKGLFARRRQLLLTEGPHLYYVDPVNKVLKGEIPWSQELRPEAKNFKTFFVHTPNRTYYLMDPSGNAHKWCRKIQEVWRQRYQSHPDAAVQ

- % activity at 100 µM [1]: 78%
- % activity at 100 µM [2]: 87%
- % activity at 100 µM [3]: 65%
- % activity at 100 µM [4]: 48%
- % activity at 100 µM [5]: 122%
- % activity at 100 µM [6]: 79%
- % activity at 100 µM [7]: 89%
- % activity at 100 µM [8]: 135%
Substance: MMI-0300 (peptide)
